Experimental findings from publication PMC3689846 are described below.

Common to all, as to experiment: SPR
On the technique in general: In SPR one partner is held on a chip, and binding of the other changes the refractive index at the surface.

Experiment [1] concerns the target Core.BaL-GT1 (germline-targeting variant of core gp120) (HIV-1 strain BaL (from the name)).
Experiment [2] addresses Core.HXB2 (core gp120 of HIV-1 strain HxB2, wild-type CD4 binding site) (HIV-1 strain HxB2).
Experiment [3] concerns the target eOD-GT6 (germline-targeting engineered outer domain of gp120) (HIV-1 strain HxB2).

3BNC60 (mature) (antibody) registered a Kd in experiment [1] of 4 nM.
As for “GL-PGV20 (predicted germline precursor of PGV20) (antibody)”, in experiment [2], the Kd was greater than 100 µM.
With “GL-PGV19 (predicted germline precursor of PGV19) (antibody)”, the Kd in experiment [2] was greater than 100 µM; in experiment [3], 19 nM.
As to “GL-PGV04 (predicted germline precursor of PGV04) (antibody)”, the Kd is greater than 100 µM in experiment [2] and greater than 100000 nM in experiment [1].
In experiment [1], “GL-NIH45-46 (predicted germline precursor of NIH45-46) (antibody)” registered a Kd greater than 100000 nM.
As to PGV20 (mature) (antibody), the Kd in experiment [2] was 0.019 µM; in experiment [1] it was 4 nM; in experiment [3] it was 6 nM.
On to “GL-12A12 (predicted germline precursor of 12A12) (antibody)”, for which the Kd in experiment [2] is greater than 100 µM.
Same read-out and setting: the result for “GL-3BNC60 (predicted germline precursor of 3BNC60) (antibody)” reads greater than 100 µM.
On to “GL-VRC-CH31 (predicted germline precursor of VRC-CH31) (antibody)”, for which the Kd in experiment [2] was greater than 100 µM.
Regarding 12A12 (mature) (antibody), the Kd in experiment [2] came out at 0.006 µM.

For orientation: Kd means the equilibrium constant for the complex coming apart. A higher Kd goes with lower affinity.
